Experimental data published in patent publication US20150056199A1.
Like-named read-outs stand apart in the source and are kept apart here.

Key:
Test in all cases: cell-based or functional assay
[1] = target: human GDF15 (hGDF15), mature, generated in-house in CHO cells (human) (UniProt Q99988)
[2] = target: human TGFβ3 (PeproTech) (human) (UniProt P10600)
[3] = target: human TGFβ1 (PeproTech) (human) (UniProt P01137)
[4] = target: murine GDF15 (mGDF15), mature, generated in-house in CHO cells (mouse) (UniProt Q9Z0J7)
Chain of murine GDF15 (mGDF15), mature, generated in-house in CHO cells (mouse) (Q9Z0J7 192-303): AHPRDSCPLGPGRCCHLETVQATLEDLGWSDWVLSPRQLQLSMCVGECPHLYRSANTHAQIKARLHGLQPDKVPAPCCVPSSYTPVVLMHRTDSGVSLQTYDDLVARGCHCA

[5] = target: human TGFβ3 (PeproTech) (human) (UniProt P10600); remark: listed apart in the source
[6] = target: human TGFβ1 (PeproTech) (human) (UniProt P01137); remark: listed apart in the source

Chain of hTβRIIshort(35-159)-hG2Fc (Fc fusion) (chain): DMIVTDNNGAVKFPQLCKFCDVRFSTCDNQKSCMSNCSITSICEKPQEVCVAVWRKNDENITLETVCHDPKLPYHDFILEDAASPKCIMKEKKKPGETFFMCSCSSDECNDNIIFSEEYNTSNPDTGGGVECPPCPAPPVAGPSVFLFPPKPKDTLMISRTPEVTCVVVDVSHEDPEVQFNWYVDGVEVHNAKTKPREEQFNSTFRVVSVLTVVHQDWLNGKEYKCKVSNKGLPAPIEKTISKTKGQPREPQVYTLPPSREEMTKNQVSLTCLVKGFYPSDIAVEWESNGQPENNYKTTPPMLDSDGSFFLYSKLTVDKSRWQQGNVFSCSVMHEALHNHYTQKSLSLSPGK
Chain of human TGFβ1 (PeproTech) (human) (P01137 279-390 limits assumed): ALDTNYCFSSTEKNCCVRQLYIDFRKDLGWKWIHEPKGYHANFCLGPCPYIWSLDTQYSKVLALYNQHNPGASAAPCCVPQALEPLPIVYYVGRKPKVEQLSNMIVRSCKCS
Chain of hTβRIIshort(23-159)-hG2Fc (Fc fusion) (chain): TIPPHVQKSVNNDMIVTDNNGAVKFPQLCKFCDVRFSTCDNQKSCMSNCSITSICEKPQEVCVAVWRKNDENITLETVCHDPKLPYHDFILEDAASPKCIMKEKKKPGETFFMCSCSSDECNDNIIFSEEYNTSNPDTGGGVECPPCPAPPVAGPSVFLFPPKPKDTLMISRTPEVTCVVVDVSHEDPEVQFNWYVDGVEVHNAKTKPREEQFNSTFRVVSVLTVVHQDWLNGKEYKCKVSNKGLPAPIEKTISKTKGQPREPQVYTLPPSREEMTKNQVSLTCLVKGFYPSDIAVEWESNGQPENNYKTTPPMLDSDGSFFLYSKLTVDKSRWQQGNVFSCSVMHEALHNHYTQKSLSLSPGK
Chain of human TGFβ3 (PeproTech) (human) (P10600 301-412 limits assumed): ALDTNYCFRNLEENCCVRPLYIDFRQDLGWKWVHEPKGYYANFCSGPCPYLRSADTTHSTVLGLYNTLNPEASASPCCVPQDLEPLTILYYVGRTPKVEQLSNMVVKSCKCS
Chain of hTβRIIshort(23-153)-hG2Fc (Fc fusion) (chain): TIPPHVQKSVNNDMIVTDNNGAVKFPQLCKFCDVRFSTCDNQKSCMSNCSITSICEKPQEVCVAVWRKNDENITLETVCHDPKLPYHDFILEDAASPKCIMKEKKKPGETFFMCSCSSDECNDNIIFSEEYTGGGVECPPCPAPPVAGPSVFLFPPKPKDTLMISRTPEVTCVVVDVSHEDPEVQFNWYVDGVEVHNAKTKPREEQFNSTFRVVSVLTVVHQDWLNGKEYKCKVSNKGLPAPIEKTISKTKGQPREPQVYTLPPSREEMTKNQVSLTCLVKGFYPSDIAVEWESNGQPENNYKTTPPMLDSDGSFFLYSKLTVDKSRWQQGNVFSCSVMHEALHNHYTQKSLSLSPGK
Chain of human GDF15 (hGDF15), mature, generated in-house in CHO cells (human) (Q99988 197-308): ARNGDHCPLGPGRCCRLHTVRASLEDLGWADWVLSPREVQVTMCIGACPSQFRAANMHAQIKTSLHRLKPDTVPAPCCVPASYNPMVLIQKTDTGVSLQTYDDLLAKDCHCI
Chain of hTβRIIshort(29-159)-hG2Fc (Fc fusion) (chain): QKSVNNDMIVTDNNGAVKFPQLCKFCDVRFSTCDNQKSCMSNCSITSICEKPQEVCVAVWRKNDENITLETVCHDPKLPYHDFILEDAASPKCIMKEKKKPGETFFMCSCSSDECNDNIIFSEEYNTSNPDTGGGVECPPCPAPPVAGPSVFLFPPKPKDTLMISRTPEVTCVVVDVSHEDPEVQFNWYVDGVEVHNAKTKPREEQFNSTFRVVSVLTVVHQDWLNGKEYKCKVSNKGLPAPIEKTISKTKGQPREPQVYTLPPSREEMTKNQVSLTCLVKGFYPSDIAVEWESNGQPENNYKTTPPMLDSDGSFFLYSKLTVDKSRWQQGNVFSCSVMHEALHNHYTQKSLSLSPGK

Row | IC50 (nM), A549 CAGA-12 reporter gene assay, hGDF15 (70 ng/ml) [1] | IC50 (nM), A549 CAGA-12 reporter gene assay, hTGFβ3 (270 pg/ml) [2] | IC50 (nM), A549 CAGA-12 reporter gene assay, hTGFβ1 (640 pg/ml) [3] | IC50 (nM), A549 CAGA-12 reporter gene assay, mGDF15 (35 ng/ml) [4] | IC50 (nM), A549 CAGA-12 reporter gene assay, hTGFβ3 (270 pg/ml) [5] | IC50 (nM), A549 CAGA-12 reporter gene assay, hTGFβ1 (640 pg/ml) [6] | IC50 (nM), A549 CAGA-12 reporter gene assay, hGDF15 (70 or 112 ng/ml) [1] | Substance
1 | 0.18 nM | 0.14 nM | 2.62 nM | – | – | – | – | hTβRIIshort(23-153)-hG2Fc (Fc fusion)
2 | 0.14 nM | 0.37 nM | 0.52 nM | 0.12 nM | 0.14 nM | 1.73 nM | – | hTβRIIshort(23-159)-hG2Fc (Fc fusion)
3 | – | – | – | 0.7 nM | – | > 73.6 nM | – | hTβRIIshort(23-159/D110K)-hG2Fc (Fc fusion)

Continued, substance first:

Row | Substance | IC50 (nM), A549 CAGA-12 reporter gene assay, hGDF15 (70 ng/ml) [1] | IC50 (nM), A549 CAGA-12 reporter gene assay, hTGFβ3 (270 pg/ml) [2] | IC50 (nM), A549 CAGA-12 reporter gene assay, hTGFβ1 (640 pg/ml) [3] | IC50 (nM), A549 CAGA-12 reporter gene assay, mGDF15 (35 ng/ml) [4] | IC50 (nM), A549 CAGA-12 reporter gene assay, hTGFβ3 (270 pg/ml) [5] | IC50 (nM), A549 CAGA-12 reporter gene assay, hTGFβ1 (640 pg/ml) [6] | IC50 (nM), A549 CAGA-12 reporter gene assay, hGDF15 (70 or 112 ng/ml) [1]
4 | hTβRIIshort(23-153/N70D)-hG2Fc (Fc fusion) | 2.42 nM | – | 17.7 nM | – | – | – | –
5 | hTβRIIshort(29-159)-hG2Fc (Fc fusion) | – | > 7.5 nM | 2.05 nM | – | – | – | 0.4 nM
6 | hTβRIIshort(35-159)-hG2Fc (Fc fusion) | – | > 7.5 nM | 2.51 nM | – | – | – | 0.92 nM
